Measured values: publication PMC10427645, “Extracellular Pgk1 interacts neural membrane protein enolase-2 to improve the neurite outgrowth of motor neurons” (Communications Biology, 2023)

Target: T1, Eno2-Myc (mouse Enolase-2 fused with Myc) (mouse, UniProt P17183 1-434)
T1 construct: Pgk1-Flag was added to the medium of Sf21 cells expressing this protein, followed by BS3 cross-linking; source: Sf21 insect cells (Baculovirus, pVL-Eno2-Myc), expressed on or in the cells, not purified
Assay: cross-linking + co-IP; cell surface crosslinking-IP: Sf21 cells expressing the Myc-tagged protein incubated 2 h with recombinant Flag-tagged Pgk1 or fragment in the medium, BS3 cross-linking, lysates immunoprecipitated with anti-Flag or anti-Myc beads, western blot with anti-Flag and anti-Myc
Settings: one partner purified

T1 sequence (P17183 whole entry, the tested form may be a part): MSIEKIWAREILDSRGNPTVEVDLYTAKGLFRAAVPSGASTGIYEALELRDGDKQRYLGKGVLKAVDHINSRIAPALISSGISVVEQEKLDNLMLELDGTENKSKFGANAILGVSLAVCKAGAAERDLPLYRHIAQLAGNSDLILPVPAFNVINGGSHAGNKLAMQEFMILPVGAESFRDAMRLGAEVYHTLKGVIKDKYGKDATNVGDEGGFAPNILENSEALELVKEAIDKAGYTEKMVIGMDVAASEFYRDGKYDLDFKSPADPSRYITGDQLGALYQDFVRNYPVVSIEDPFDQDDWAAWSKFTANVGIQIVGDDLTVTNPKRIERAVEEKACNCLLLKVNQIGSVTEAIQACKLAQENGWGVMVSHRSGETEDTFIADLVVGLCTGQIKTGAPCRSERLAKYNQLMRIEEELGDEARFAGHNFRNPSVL

B1: recombinant mouse Pgk1 fused with Flag (Pgk1-Flag) (natural protein, UniProt P09411 1-417, looked up)
chain: MSLSNKLTLDKLDVKGKRVVMRVDFNVPMKNNQITNNQRIKAAVPSIKFCLDNGAKSVVLMSHLGRPDGVPMPDKYSLEPVAAELKSLLGKDVLFLKDCVGPEVENACANPAAGTVILLENLRFHVEEEGKGKDASGNKVKAEPAKIDAFRASLSKLGDVYVNDAFGTAHRAHSSMVGVNLPQKAGGFLMKKELNYFAKALESPERPFLAILGGAKVADKIQLINNMLDKVNEMIIGGGMAFTFLKVLNNMEIGTSLYDEEGAKIVKDLMSKAEKNGVKITLPVDFVTADKFDENAKTGQATVASGIPAGWMGLDCGTESSKKYAEAVGRAKQIVWNGPVGVFEWEAFARGTKSLMDEVVKATSRGCITIIGGGDTATCCAKWNTEDKVSHVSTGGGASLELLEGKVLPGVDALSNV
notes: phosphoglycerate kinase 1 (Pgk1), mouse, full-length coding region (1-417), cDNA cloned from NSC34 and C2C12 cells; also called extracellular Pgk1; phosphoglycerate kinase 1; source: Sf21 insect cells (Baculovirus expression system), purified (anti-Flag beads, eluted with 3x Flag peptide)
- fold, intensity ratio of Flag relative to Myc in the Eno2-Myc plus Pgk1-Flag group against the Eno2-Myc group (set as 1): 8 fold
- fold, intensity ratio of Myc relative to Flag in the Pgk1-Flag plus Eno2-Myc group against the Pgk1-Flag group (set as 1): 14 fold
